Measured values taken from US20200206304A1, “METHODS AND COMPOSITIONS FOR EFFICIENT DELIVERY THROUGH MULTIPLE BIO BARRIERS” (Cedars-Sinai Medical Center, priority 2017, published 2020).
Where two headings read alike, the source gives them in different places.

Key:
Brain (other hemisphere) = conditions: 2 h, PBS background subtracted
[1] = test system: blood-brain barrier (BBB); conditions: Israel et al., 2019; cited from earlier work
neurons and astroglia = conditions: mouse, in vivo
Description: Neuronal and glial counterstaining: In FIGS. 27A-27C, brain tissue from drug-injected mice was counterstained to determine if our nanoconjugates are taken up by neurons or glia. Cryosections ([…]) were air-dried for 10 min, fixed with 2% paraformaldehyde for 5 min, and then rinsed three times with PBS. […] The antibodies anti-Neun (Abcam, Cambridge, Mass., USA; AB104225) and anti-GFAP (Neuromics, Edina, Minn., USA; C1122102) were then diluted 1:500 in PBS-T and tissue sections incubated simultaneously with antibody solutions overnight at 4° C. in a humid chamber. Tissue sections were then washed five times with PBS-T and incubated in appropriate secondary antibody diluted 1:250 in PBS-T, for 2-4 h. After five washes in PBS at room temperature, sections were mounted between coverslips in Fluoromount-G with DAPI.
To this end, after systemic injection of our D-conjugates we counterstained brain tissue sections of hippocampus and cortex with anti-Neun to label neurons, and with anti-GFAP to label astroglia (FIGS. 27A-27C) and inspected the stained sections for red fluorescent particulates. […] Positive neurons and glia cells were counted after systemic injection of conjugates containing D1, D3, AC189 peptides, and of a control PBS (FIGS. 27A-27C).

[2] = test system: blood-brain barrier (BBB); assay: BBB penetration: nanoconjugate fluorescence in brain parenchyma of healthy mice by optical imaging
Description: Healthy Mice: Eight to nine-week-old BALB/C and BLACK-6 mice were obtained from Charles River Laboratories (Wilmington, Mass., USA). […] Three to four mice of each sex were used for each experiment.
Nanoconjugates were dissolved freshly in PBS (pH 7.4) prior to each experiment and injected intravenously (i.v.) into the lateral tail vein. Mice were anesthetized with isoflurane beforehand, and their tails were briefly warmed to facilitate injections. […] The drug injection volume was kept constant at 150 μL. After each injection, mice were promptly returned to their cages. Eight to nine-week-old B116 mice were obtained from Charles River Laboratories (Wilmington, Mass., USA). […] Three to four mice of each sex were used for each experiment. Nanoconjugates were dissolved freshly in PBS (pH 7.4) prior to each experiment and injected intravenously (i.v.) into the lateral tail vein. […] All mice were euthanized 2 h post drug injection. Mice were anesthetized with isoflurane beforehand and their tails were briefly warmed to facilitate injections. All conjugates were administered as a single dose, as indicated for each experiment (4× or 8×). […]
In this analysis, 20×10 μm^2 or 10×10 μm^2 sized regions of interest (ROI) were randomly overlaid on images showing the vasculature, explicitly avoiding blood vessels. For FIG. 30A, the ROI was drawn around all Neun stained nucleuses detected. Intensity measurements and positions were then obtained for each ROI after it was separately overlaid on the image showing nanoconjugate fluorescence.
Fluorescence measurements were thus based on the anatomy of the cerebral vasculature rather than nanoconjugate labeling of whole sections or extracts of brain parenchyma and were therefore unbiased and intentionally avoiding the nanoconjugate load in the cerebral vasculature.
All nanoconjugate fluorescence measurements in brain parenchyma (e.g., FIGS. 14B-14C (1-3); 16B (1-3); 19B-19E; 20C-20D; and FIG. 22B) are presented as relative fluorescence intensities. […] Relative fluorescence measurements thus represent total fluorescence minus representative autofluorescence. […]

[3] = sagittal sinus, 0.068 μmol/kg
[4] = 0.5, 1, 2 and 4 hours after injection

Substance: PMLA/LLL/AP2/rhodamine [P/LLL/AP2]
- Brain (other hemisphere) fluorescence (Brain (other hemisphere); dose 1X): 2.1
- Brain (other hemisphere) fluorescence (Brain (other hemisphere); dose 4X): 9.4
- half-life of first decline in brain parenchyma [1]: > 2 h
- time independent plateau in parenchyma [1]: > 240 min
- estimated parenchyma concentration (cortex, 120 min, 0.068 μmol/kg injection): 0.049 ± 0.001 µmol/mL
- percentage of free serum drug detected in the brain (within 120 minutes after i.v. administration): ≥ 40%
- cell association in GFAP and NEUN staining (neurons and astroglia): no cell association
- time at which nanoconjugate fluorescence could not be distinguished from background of brain parenchyma ([2]; 0.068 μmol/kg i.v.): 240 min
- time of maximal conjugate fluorescence in cortex parenchyma ([2]; 0.068 μmol/kg i.v.): 30 min
- fluorescence intensity in normal brain ([2]; dose 8×): 30 units
- optical half-life (optically measured serum clearance) [3]: 1.22 h
- Visibility of nanoconjugate around blood vessels in ex vivo brain slices [4]: visible around blood vessels for two hours and almost disappeared at 4 hours
